Assay results published in the DeepSol protein solubility set.

Assay: soluble on expression in E. coli; label from the status in PepcDB or PDB records

Sequence	soluble on expression in E. coli
MSLTITDWASTVNLNYDMSNKPVIAHVWKEQNANWLYGGWVCRSDRDENEGACDETKLPPGMLYGVTKIRLRFREQISHAETTLILDGQSGGFCLSTKISGGSVCKYLMQTCLSTFLQKSLRRYQKLAYGRLRWPWMEGHHHHHH	not soluble
MSLTITVLQGGNVLDLERGVLLEHHHVVIDGERIVEVTDRPVDLPNAQAIDVRGKTVMPGFIDCHVHVLASNANLGVNATQPNILAAIRSLPILDAMLSRGFTSVRDAGGADWSLMQAVETGLVSGPRIFPSGKALSQTGGHGDFRPRGDLLEPCSCCFRTGAIARVVDGVEGVRLAVREEIQKGATQIKIMASGGVASPTDPIANTQYSEDEIRAIVDEAEAANTYVMAHAYTGRAIARAVRCGVRTIEHGNLVDEAAAKLMHEHGAFVVPTLVTYDALAKHGAEFGMPPESVAKVASVQQKGRESLEIYANAGVKMGFGSDLLGEMHAFQSGEFRIRAEVLGNLEALRSATTVAAEIVNMQGQLGVIAVGAIADLVVLDGNPLEDIGVVADEGARVEYVLQRGTLVKRQAAGREGHHHHHH	soluble
MSLTIYHPAELPQRQAEKSPNKTIIKYYDRESKQWRNISWSKFAAGVMNAAKALAEIGLESGERIGIYSPNMVHCLYTELGAFAMRGVVVPLYATSSPEQLRFIVEDSSMETLFVGEQFQYNNAYRVQKEYGTLKRIVVFDERVVLNPEDKTSKYFSEFVRLGDSMPNETKVKVSSREAIPSDPALIIYTSGTSGRSKGVLLLHSNLMYQMKVHSEHIPVYGPGELSIAFLPMSHIFEKAWTLFCLTTGTRIAILRDPKKVLEALPQIRPSLMCNVPRFWEKVYQGVNEKMASSPRILKGVYRRAMAVGQRYRLDYWNEGKRAPLLLSMQYAFYNCTIFTLLKRVLGLQRGRYFPTAGAPLSDEINIFLQSVNIPIIVGYGLSETTATVSFYPQRGFKIGSMGKVMPGLDARIDPDNNEILVKGESVMSEYYNLPEETAGAFTPDGYFRTGDAGRMDPDGTLYFLERIKDLYKTANGKYIAPQMIEGMLTKDPIIEQIAVIGDRFKYVSALVYPNWELVRQAAIKRGLEQARTMSVDEMAANPEINRLMMARIEAAQDSLAAYEKVKYITLLAEPFTLEKGELTETMKLKRRVINEHYAEAIEKMYEGHHHHHH	soluble
MSLTPAPDLTLGTAVDWRFAATVGRRLARPGPPSTDYTRRQVIDELAGAATKAEPLVRQVTGLLTDGADDGRVPAARIVDRPEWIAAAAESMRVMMNGTERPRGFLTGRVTGAQTGAVLAYVSSGILGQYDPFATDRGAGAGCLLLVYPNVIAVERQLRIEPSDFRLWVCLHEVTHRVQFTANPWLPGYMSQALALLTRDTGDDLGQVLSRLADYARNRGNTASQADANSTGILGLVRAVQSEPQRQALDQLLVLGTLLEGHADHVMDAVGPMAVPSVATIRRRFDERRHRKQPPLQRLLRALLGLDAKLSQYTRGKAFVDQVVGRVGMARFNAVWTGPETLPLPVEIEEPQRWIDRVLEGHHHHHH	soluble
MSLTQLQITAFGDPSVLRLNPSLDKVPADGEVRVRICFAGVNPIDAKTRAGLGWAAAQNKDKLPWTPGYDVAGVVEKIGPGVTALAEGDRVCGMVGFPLAAGGYGESVVAREEELVRLEDIGLRQGAALPLAGLTAWQGLFEHGALKAGQRVLILAGAGGVGHLAVQFASAYGAEVVATASRDNHSFLHGLGASRMVDYHDADWVAQVGQVELVLDLVGGESGKAALACVKPGGRLVTVPTISAQQIKDAAAGSAIEVLGMLVHPDRQQLSQMLTLLRQGEVQVTVAGEYALAEGALAHQAIEQGHVRGKLLLRMPAAEGHHHHHH	soluble
MSLTRFQDRQEGERVVDFYMIRDREVKRASNGTDYLNLTLERKLEYIPARLWDATEQHKQALIRRAVVKVDGVVTVYRQQKQLNIQRIRLATDEDPVTVAELISKPGLSREELWHELRMIIEEIQDETLLKLVKTMLGKKEIRERFTTIPASKATHHPYYAGLLEHVVEVCQSILQLSLIYGTINRDVVIAAAILHDIGKVAALHDPFAPEYTDEGEMIGHVVLGVELINQTAQELGISMDEPILLAVKHCILSQREQDEGATSFVYGPKTKEAILLAALDQLNGRLNSFELMASHAEERWTYSPLFKRKMFTPDNDEGHHHHHH	soluble
MSLTRQSLQQAAESRRSIYSLNKNLPVGKDEVVQIVEHAVLHTPSSFNSQSARVVVLFGEEHDKVWQFVEDALRAVVPADSFEPTAQKLNLFKAGAATILFYEDQNVVKGLQEQFPAYAANFPVWADQANAMVQYAVWTTLAAVGVGANLQHYNPLPDAAIAKAWNIPENWLLRAQMVIGGIEGAAGEKTFEPVAERLKVFGAEGGSHHHHHH	soluble
MSLTRRDFAGRSALTGAGVVLAGSVGALATAPNALASTDTDSVGAEHDGHDHHHGHGHGGVGYGPLLPDPDGILALPAGFRYEIITYSGRTKLESGEYTPSNHDGTAAFDGPRGTTLLVNNHELGGHRDDWPHPVPLTEGLVYDPAAAGGCTVVEVRRGGHVAEWVGIAGTATNCAGGSTPWGTWLTCEETEDRAGEEGMTKDHGYVFEVDPEDRRANREPKPVKALGRYAHEAVVIDPKRGHAYLTEDASGPNGLLYRWTPPEHFRHGRGRLRTLADDAGVLQAFKCFDSGGKFVDDLSRATRTGTVYGVDWVDVPDRDAQTTSVRKQFAAGEVTRARKLEGMWWADGGAYVVSSFARDESPGRPHDGQVWFYDPKRRTLTLKVLLGVNADPSADGAFDGPDNITVSPYGGLVIAEDGDGVQHLFGATDSGRTYPIARNELNLGTEDDPEYSEFTGVTFSPDGRTLYANIQTPGIMLAITGPWKRQKRR	soluble
MSLTSFSRLNTNLLQLKSKHSSDNAQHLYVNGNVGSSTEEITSVEYSKLLQLKLIDESLSFQWCNNYTVLSIYSMKETFARKTIYIHFPKPLLNKWFTAVVYESSETTSNLCFDVILKDGIFINLSLPIDFILSRTRQNEYPENWLKVLNPYDFSVRPPQCLFHVDNTFSVVFLKDGGLLGLKRIPLEILNDFELQPVLFNDSSYFQSFTRMFSKYDNHNSAVVSAELLNDKYLVTLTNDATIKIWDLTTYQLNAHFDLKEKNQQVNYGAAGKYMIICGSLLFVYLPAGNGSFQVIQLENTHSSRISFKPLNVNIPLNLSSYSIWSLIDIQLVKSSIVKQSGLNLVLLWKSNTVTKLQLLSFEDSLYSSYKWIDGNSTYLSDLLDDSDLITNGNMEKALLNLKSHYSQSTYDDAQKILNKNNVMVQINDPHNQDYLNNLEALLKELHKQYQEPSTLTILDDEIIVVNSLHMYHHSTYKLDSQLETIFFNIFERKEPSSQLELFLNILHGFSTTITSETLNKISEKFLDMVNGSINPSLSLKNKITIVFQDCLTNGFQSANLSKLLENLNSIDVVEVLSEFIHCDLKVGAFSVIDLLDTDIFLSVLSMESLKQTLSIMDKFIIDILLVFTIVDINYEVFAEKLSKLITLHFNISLWLQVYQIDKLLAISETFGHVTKYNYGAQLKSYSDITDFTTLMVGFVKNSEGHHHHHH	not soluble
MSLTSPKRNIVGFTIVNDKHEFAQRLINAFKAEAKANKYEALVATSQNSRISEREQILEFVHLKVDAIFITTLDDVYIGSAIEEAKKAGIPVFAIDRMIRSDAVVSSITSNNQMIGEQLASYIKNELIKQTGRSTGRIVEITGTANVYTTNERHRGFLKGIENEPTLSIVDSVSGNYDPVTSERVMRQVIDSGIPFDAVYCHNDDIAMGVLEALKKAKISGKIVVGIDGNRAILEAVDMKSMDATVVQSAEEMMKVAFSALKLHTKNKKIPDRFYTYSYLYDGSREGHHHHHH	soluble
MSLTVIRKQDVISSVADALQYISYYHPLDFVKALEKAYQREESQAAKDSIAQILINSRMSAEGHRPICQDTGIVTCFVNIGMGVQWDSTDMTVQQMVDEGVRQAYTNPDNPLRASVLMDPAGKRINTKDNTPAVVHINMVPGDKVDIQIAAKGGGSENKTKMVMLNPSDDIAEWVEKTVPLMGAGWCPPGMLGIGIGGTAEKAAVLAKEALMEHIDIHELIERGPQNAEEELRLDIFNRVNKLGIGAQGLGGLTTVVDVKIKSAPTHAASKPVCMIPNCAATRHVHFTLDGSGPAQLTPPKLEDWPQITWEAGANTRRVNLDNITREEIQTWKTGETVLLSGKILTGRDAAHKRIQTMLQKGEKLPDSVDLKDKFIYYVGPVDAVGDEVVGPAGPTTSTRMDKFTDMMLEEVGVMGMIGKAERGPATVESIKKHKAVYLMAVGGAAYLVAKAIKKARVVAFEDLGMEAIYEFEVEDMPVTVAVDSTGANAHQIGPDTWRVKIAEAAKEGGSHHHHHH	soluble
MSLTYLNHILVIEDDLDAAESLSDMLSIDGFQITTTASVQDAMELLESQRFGVILTDRHLPDGLIEHRLQEILEVSSKTPVIVVTGYSDLQAVILAFRQGISDYVIKPIIPEDLIQTVRRILERRVLEQHLQIEHAFAERIQSTAEAIILVIDFDGRVIHFNRFFTELTGWAQGDLIGENWFDRCIYPEDRDRLINVCDTMSRTDRYRGCTNRIRCKNGEAREIRWSNSKWSEADGGQQFILAIGIDVSDLAEATQRAVRAERLAAIGETVAALAHESRNAIQRINAASEVLAINIRGNVDSEEELSVVQRAASDLSTLLESVRAFAAPIQAKLECADLREIWRRSWDDLECKRSGRDVELVENATSCLHDVKVDVCRMEQLFRNLFLNALEASEGPVRIEIDCECNDEMVCLKVTDDGPGLTAEQSAHLFEPFYTTKPTGTGLGMPICQRIVEAHGGTIAAGNHLNGTEVAICVPRVKAAVLVSEGHHHHHH	soluble
MSLVAVRSAHINKAGEFDPEKWIASLGITSQKSCECLAETWAYCLQQTQGHPDASLLLWRGVEMVEILSTLSMDIDTLRAALLFPLADANVVSEDVLRESVGKSVVNLIHGVRDMAAIRQLKATHTDSVSSEQVDNVRRMLLAMVDDFRCVVIKLAERIAHLREVKDAPEDERVLAAKECTNIYAPLANRLGIGQLKWELEDYCFRYLHPTEYKRIAKLLHERRLDREHYIEEFVGHLRAEMKAEGVKAEVYGRPKHIYSIWRKMQKKNLAFDELFDVRAVRIVAERLQDCYAALGIVHTHYRHLPDEKDDYVANPKPNGYQSIHTVVLGPGGKTVEIQIRTKQMHEDAELGVAAHWKYKEGAAAGGARSGHEDRIAWLRKLIAWQEEMADSGEMLDEVRSQVFDDRVYVFTPKGDVVDLPAGSTPLDFAYHIHSDVGHRCIGAKIGGRIVPFTYQLQMGDQIEIITQKQPNPSRDWLNPNLGYVTTSRGRSKIHAWFRKQDRDKNILAGRQILDDELEHLGISLKEAEKHLLPRYNFNDVDELLAAIGGGDIRLNQMVNFLQSQFNKPSAEEQDAAALKQLQQKSYTPQNRSKDNGRVVVEGVGNLMHHIARCCQPIPGDEIVGFITQGRGISVHRADCEQLAELRSHAPERIVDAVWGESYSAGYSLVVRVVANDRSGLLRDITTILANEKVNVLGVASRSDTKQQLATIDMTIEIYNLQVLGRVLGKLNQVPDVIDARRLHGSEGHHHHHH	not soluble
MSLVGDVYLGVGSASSEYWAAYIEGAKAVASSLGKDVNVIPSEFDGQKLLEQFGAVFAAGCEDCVVTVDPASNAFTKAMIERADTAGAKYVNLWNRPDEIHPWDTVPNTWIANISFDGVDSGYQNGMALCNALGGKGNIVALNGIPDNPPAKQRIAGLHKALQECPGLKLLDTQVGNWDQTQGQSITRAWLAKYGDELNGIFSANDGMALGAVAALREKGLVGKILVTGSDGSSDVIKLIEKGEMLSTMHIDGYVQGAYAVALAAAAVKGDIKMDELKQDQRDFFLSQTLVTKDNAASVLNSKKDASQFSYDALKGNFWAASVGQIPAGANEGHHHHHH	soluble
MSLVIGYMESNKNNSKWKDILMDGEILQIENIFNGSHNKKNNGLIIFKIKDKLGNVNKLTFVSKSADMSIQVEKAERLIKKGSYYRHFKGNYYKVLYIAENSEDKEKVVVYQAMYGEKKVYVRPFKMFISKVDHCKYPEIEQEYRFMSISELENQFGTSVVASWNMQNIYVDHTIEGHHHHHH	not soluble
